Test results published in patent publication US20040077835A1, “Chemokine receptor modulators, production and use” (published 2004).
The star is where a group is joined. Nonanoyl = CCCCCCCCC(=O)*

Key:
CCR5 [1] = biological target: T1, CCR5 (Homo sapiens (Human), UniProt P51681); assay: cell-based or functional assay
CCR5 [2] = biological target: T1, CCR5; assay: cell-based or functional assay; remark: listed apart in the source

Mean Relative Potency (IC50 in the envelope-mediated cell fusion assay, relative to AOP-RANTES = 100) (CCR5 [1]) | Average Infectivity IC50 (cell-free viral infection assay) (CCR5 [2]) [pM] | Cell-Fusion Result For Comparison (IC50) (CCR5 [2]) [pM] | Binder
15 relative to AOP-RANTES = 100 | – | – | NNY-PYSSDTTPCCFAYI-A16S-RANTES (17-68) (ligand, ends and bridges not checked) Nonanoyl-PYSSDTTPCCFAYISRPLPRAHIKEYFYTSGKCSNPAVVFVTRKNRQVCANPEKKWVREYINSLEMS
– | 24 | 97 | n-Nonanoyl-RANTES (2-68) (ligand, ends and bridges not checked) Nonanoyl-PYSSDTTPCCFAYIARPLPRAHIKEYFYTSGKCSNPAVVFVTRKNRQVCANPEKKWVREYINSLEMS
13 relative to AOP-RANTES = 100 | – | – | NNY-…-L19I-RANTES (20-68) (ligand, ends and bridges not checked) Nonanoyl-PYSSDTTPCCFAYIARPIPRAHIKEYFYTSGKCSNPAVVFVTRKNRQVCANPEKKWVREYINSLEMS

Second part, the binder before the results:

Binder | Mean Relative Potency (IC50 in the envelope-mediated cell fusion assay, relative to AOP-RANTES = 100) (CCR5 [1]) | Average Infectivity IC50 (cell-free viral infection assay) (CCR5 [2]) [pM] | Cell-Fusion Result For Comparison (IC50) (CCR5 [2]) [pM]
AOP-RANTES-K(palmitoyl)-G (ligand, N-terminal aminooxypentane in place of Ser 1; epsilon amino group of the Lys of the C-terminal extension carries glyoxylyl=AoA-ethylene diamine-palmitate ("palmitoyl"), joined by an oxime bond) PYSSDTTPCCFAYIARPLPRAHIKEYFYTSGKCSNPAVVFVTRKNRQVCANPEKKWVREYINSLEMSKG | 45 relative to AOP-RANTES = 100 | – | –
Aminooxypentane-RANTES (2-68) (ligand, ends and bridges not checked) {CH3‑(CH2)4‑O‑N:CH‑CO}-PYSSDTTPCCFAYIARPLPRAHIKEYFYTSGKCSNPAVVFVTRKNRQVCANPEKKWVREYINSLEMS | 100 relative to AOP-RANTES = 100 (arbitrary value of the control) | 145 | 480
